The results in this text go back to the Human Domainome abundance scans (Beltran et al. 2025).

± gives the uncertainty stated by the source.

B1: Retinoic acid receptor beta, residues 85 to 161; numbered along this chain, P10826 (parent)
chain: YKPCFVCQDKSSGYHYGVSACEGCKGFFRRSIQKNMIYTCHRDKNCVINKVTRNRCQYCRLQKCFEVGMSKESVRND

The data set covers variants of B1. Nature of the data set: abundance fitness (aPCA) (normalised: wild type 0, dead -1); higher = more abundant; growth selection in yeast, the domain comes from the species named. To be noted: Homo sapiens.
For the variant YKPCFVCQDKSSGYHYGVSACEGCKGFFRESIQKNMIYTCHRDKNCVINKVTRNRCQYCRLQKCFEVGMSKESVRND [R30E], the abundance fitness came to 0.142 ± 0.049. To YKPCFVCQDKSSGYHYGVSACEGCKGFFRASIQKNMIYTCHRDKNCVINKVTRNRCQYCRLQKCFEVGMSKESVRND [R30A] belongs -0.935 ± 0.14. Consider YKPCFVCQDKSSGYHYGVSACEGCKGFFRCSIQKNMIYTCHRDKNCVINKVTRNRCQYCRLQKCFEVGMSKESVRND [R30C], for which the abundance fitness is -0.694 ± 0.24.

For YKPCFVCQDKSSGYHYGVSACEGCKGFFRDSIQKNMIYTCHRDKNCVINKVTRNRCQYCRLQKCFEVGMSKESVRND [R30D], the abundance fitness came out at 0.234 ± 0.072. For YKPCFVCQDKSSGYHYGVSACEGCKGFFRGSIQKNMIYTCHRDKNCVINKVTRNRCQYCRLQKCFEVGMSKESVRND [R30G], the abundance fitness was -0.702 ± 0.074. To YKPCFVCQDKSSGYHYGVSACEGCKTFFRRSIQKNMIYTCHRDKNCVINKVTRNRCQYCRLQKCFEVGMSKESVRND [G26T] belongs -0.024 ± 0.057; to YKPCFVCQDKSSGYHYGVSACEGCKIFFRRSIQKNMIYTCHRDKNCVINKVTRNRCQYCRLQKCFEVGMSKESVRND [G26I], -0.078 ± 0.11. In the case of YKPCFVCQDKSSGYHYGVSACEGCKVFFRRSIQKNMIYTCHRDKNCVINKVTRNRCQYCRLQKCFEVGMSKESVRND [G26V], the abundance fitness is -0.121 ± 0.042. To YKPCFVCQDKSSGYHYGVSACEGCKDFFRRSIQKNMIYTCHRDKNCVINKVTRNRCQYCRLQKCFEVGMSKESVRND [G26D] belongs 0.162 ± 0.078; to YKPCFVCQDKSSGYHYGVSACEGCKRFFRRSIQKNMIYTCHRDKNCVINKVTRNRCQYCRLQKCFEVGMSKESVRND [G26R], -0.481 ± 0.052; to YKPCFVCQDKSSGYHYGVSACEGCKAFFRRSIQKNMIYTCHRDKNCVINKVTRNRCQYCRLQKCFEVGMSKESVRND [G26A], -0.021 ± 0.045. On to YKPCFVCQDKSSGYHYGVSACEGCKHFFRRSIQKNMIYTCHRDKNCVINKVTRNRCQYCRLQKCFEVGMSKESVRND [G26H], for which the abundance fitness was -0.109 ± 0.12.

Take YKPCFVCQDKSSGYHYGVSACEGCKCFFRRSIQKNMIYTCHRDKNCVINKVTRNRCQYCRLQKCFEVGMSKESVRND [G26C]: the abundance fitness was -0.107 ± 0.069. Regarding YKPCFVCQDKSSGYHYGVSACEGCKSFFRRSIQKNMIYTCHRDKNCVINKVTRNRCQYCRLQKCFEVGMSKESVRND [G26S], the abundance fitness was -0.254 ± 0.066. To YKPCFVCQDKSSGYHYGVSACEGCKLFFRRSIQKNMIYTCHRDKNCVINKVTRNRCQYCRLQKCFEVGMSKESVRND [G26L] belongs -0.265 ± 0.049; to YKPCFVCQDKSSGYHYGVSACEGCKNFFRRSIQKNMIYTCHRDKNCVINKVTRNRCQYCRLQKCFEVGMSKESVRND [G26N], 0.246 ± 0.12. To YKPCFVCQDKSSGYHYGVSACEGCKQFFRRSIQKNMIYTCHRDKNCVINKVTRNRCQYCRLQKCFEVGMSKESVRND [G26Q] belongs -0.11 ± 0.073; to YKPCFVCQDKSSGYHYGVSACEGCKWFFRRSIQKNMIYTCHRDKNCVINKVTRNRCQYCRLQKCFEVGMSKESVRND [G26W], -0.862 ± 0.1; to YKPCFVCQDKSSGYHYGVSACEGCKEFFRRSIQKNMIYTCHRDKNCVINKVTRNRCQYCRLQKCFEVGMSKESVRND [G26E], 0.107 ± 0.045. Turning to YKPCFVCQDKSSGYHYGVSACEGCKYFFRRSIQKNMIYTCHRDKNCVINKVTRNRCQYCRLQKCFEVGMSKESVRND [G26Y], the abundance fitness is -0.467 ± 0.22. To YKPCFVCQDKSSGYHYGVSACEGCKFFFRRSIQKNMIYTCHRDKNCVINKVTRNRCQYCRLQKCFEVGMSKESVRND [G26F] belongs -0.193 ± 0.14; to YKPCFVCQDKSSGYHYGVSACEGCKMFFRRSIQKNMIYTCHRDKNCVINKVTRNRCQYCRLQKCFEVGMSKESVRND [G26M], -0.396 ± 0.076; to YKPCFVCQDKSSGYHYGVSACEGCKKFFRRSIQKNMIYTCHRDKNCVINKVTRNRCQYCRLQKCFEVGMSKESVRND [G26K], -0.49 ± 0.1.

For YKPCFVCQDKSSGYHYGVSACEGCKGFFSRSIQKNMIYTCHRDKNCVINKVTRNRCQYCRLQKCFEVGMSKESVRND [R29S], the abundance fitness was determined as 0.098 ± 0.049. To YKPCFVCQDKSSGYHYGVSACEGCKGFFNRSIQKNMIYTCHRDKNCVINKVTRNRCQYCRLQKCFEVGMSKESVRND [R29N] belongs 0.145 ± 0.15.

For the variant YKPCFVCQDKSSGYHYGVSACEGCKGFFKRSIQKNMIYTCHRDKNCVINKVTRNRCQYCRLQKCFEVGMSKESVRND [R29K], the abundance fitness was -0.092 ± 0.072. To YKPCFVCQDKSSGYHYGVSACEGCKGFFYRSIQKNMIYTCHRDKNCVINKVTRNRCQYCRLQKCFEVGMSKESVRND [R29Y] belongs -0.339 ± 0.17; to YKPCFVCQDKSSGYHYGVSACEGCKGFFLRSIQKNMIYTCHRDKNCVINKVTRNRCQYCRLQKCFEVGMSKESVRND [R29L], 0.026 ± 0.045.

Take YKPCFVCQDKSSGYHYGVSACEGCKGFFQRSIQKNMIYTCHRDKNCVINKVTRNRCQYCRLQKCFEVGMSKESVRND [R29Q]: the abundance fitness worked out at 0.091 ± 0.06. To YKPCFVCQDKSSGYHYGVSACEGCKGFFIRSIQKNMIYTCHRDKNCVINKVTRNRCQYCRLQKCFEVGMSKESVRND [R29I] belongs 0.069 ± 0.066; to YKPCFVCQDKSSGYHYGVSACEGCKGFFWRSIQKNMIYTCHRDKNCVINKVTRNRCQYCRLQKCFEVGMSKESVRND [R29W], 0.011 ± 0.045; to YKPCFVCQDKSSGYHYGVSACEGCKGFFHRSIQKNMIYTCHRDKNCVINKVTRNRCQYCRLQKCFEVGMSKESVRND [R29H], 0.162 ± 0.2. To YKPCFVCQDKSSGYHYGVSACEGCKGFFDRSIQKNMIYTCHRDKNCVINKVTRNRCQYCRLQKCFEVGMSKESVRND [R29D] belongs -0.079 ± 0.1; to YKPCFVCQDKSSGYHYGVSACEGCKGFFVRSIQKNMIYTCHRDKNCVINKVTRNRCQYCRLQKCFEVGMSKESVRND [R29V], 0.084 ± 0.044. Take YKPCFVCQDKSSGYHYGVSACEGCKGFFPRSIQKNMIYTCHRDKNCVINKVTRNRCQYCRLQKCFEVGMSKESVRND [R29P]: the abundance fitness is -0.77 ± 0.29.
